Measurements from patent US20250161505A1 (RIPTIDE BIOSCIENCE, published 2025).

B1: CD206 mouse protein (receptor)
chain: LDARQFLIYNEDHKRCVDALSAISVQTATCNPEAESQKFRWVSDSQIMSVAFKLCLGVPSKTDWASVTLYACDSKSEYQKWECKNDTLFGIKGTELYFNYGNRQEKNIKLYKGSGLWSRWKVYGTTDDLCSRGYEAMYSLLGNANGAVCAFPFKFENKWYADCTSAGRSDGWLWCGTTTDYDKDKLFGFCPLHFEGSERLWNKDPLTGILYQINSKSALTWHQARASCKQQNADLLSVTEIHEQMYLTGLTSSLSSGLWIGLNSLSVRSGWQWAGGSPFRYLNWLPGSPSSEPGKSCVSLNPGKNAKWENLECVQKLGYICKKGNNTLNPFIIPSASDVPTGCPNQWWPYAGHCYRIHREEKKIQKYALQACRKEGGDLASIHSIEEFDFIFSQLGYEPNDELWIGLNDIKIQMYFEWSDGTPVTFTKWLPGEPSHENNRQEDCVVMKGKDGYWADRACEQPLGYICKMVSQSHAVVPEGADKGCRKGWKRHGFYCYLIGSTLSTFTDANHTCTNEKAYLTTVEDRYEQAFLTSLVGLRPEKYFWTGLSDVQNKGTFRWTVDEQVQFTHWNADMPGRKAGCVAMKTGVAGGLWDVLSCEEKAKFVCKHWAEGVTRPPEPTTTPEPKCPENWGTTSKTSMCFKLYAKGKHEKKTWFESRDFCKAIGGELASIKSKDEQQVIWRLITSSGSYHELFWLGLTYGSPSEGFTWSDGSPVSYENWAYGEPNNYQNVEYCGELKGDPGMSWNDINCEHLNNWICQIQKGKTLLPEPTPAPQDNPPVTADGWVIYKDYQYYFSKEKETMDNARAFCKKNFGDLATIKSESEKKFLWKYINKNGGQSPYFIGMLISMDKKFIWMDGSKVDFVAWATGEPNFANDDENCVTMYTNSGFWNDINCGYPNNFICQRHNSSINATAMPTTPTTPGGCKEGWHLYKNKCFKIFGFANEEKKSWQDARQACKGLKGNLVSIENAQEQAFVTYHMRDSTFNAWTGLNDINAEHMFLWTAGQGVHYTNWGKGYPGGRRSSLSYEDADCVVVIGGNSREAGTWMDDTCDSKQGYICQTQTDPSLPVSPTTTPKDGFVTYGKSSYSLMKLKLPWHEAETYCKDHTSLLASILDPYSNAFAWMKMHPFNVPIWIALNSNLTNNEYTWTDRWRVRYTNWGADEPKLKSACVYMDVDGYWRTSYCNESFYFLCKKSDEIPATEPPQLPGKCPESEQTAWIPFYGHCYYFESSFTRSWGQASLECLRMGASLVSIETAAESSFLSYRVEPLKSKTNFWIGMFRNVEGKWLWLNDNPVSFVNWKTGDPSGERNDCVVLASSSGLWNNIHCSSYKGFICKMPKIIDPVTTHSSITTKADQRKMDPQPKGSSKA
notes: Bought protein coated on a 96 well plate (1 ug per well); also called mouse CD206 protein; murine CD206
B2: Recombinant human CD206 (receptor)
chain: LLDTRQFLIYNEDHKRCVDAVSPSAVQTAACNQDAESQKFRWVSESQIMSVAFKLCLGVPSKTDWVAITLYACDSKSEFQKWECKNDTLLGIKGEDLFFNYGNRQEKNIMLYKGSGLWSRWKIYGTTDNLCSRGYEAMYTLLGNANGATCAFPFKFENKWYADCTSAGRSDGWLWCGTTTDYDTDKLFGYCPLKFEGSESLWNKDPLTSVSYQINSKSALTWHQARKSCQQQNAELLSITEIHEQTYLTGLTSSLTSGLWIGLNSLSFNSGWQWSDRSPFRYLNWLPGSPSAEPGKSCVSLNPGKNAKWENLECVQKLGYICKKGNTTLNSFVIPSESDVPTHCPSQWWPYAGHCYKIHRDEKKIQRDALTTCRKEGGDLTSIHTIEELDFIISQLGYEPNDELWIGLNDIKIQMYFEWSDGTPVTFTKWLRGEPSHENNRQEDCVVMKGKDGYWADRGCEWPLGYICKMKSRSQGPEIVEVEKGCRKGWKKHHFYCYMIGHTLSTFAEANQTCNNENAYLTTIEDRYEQAFLTSFVGLRPEKYFWTGLSDIQTKGTFQWTIEEEVRFTHWNSDMPGRKPGCVAMRTGIAGGLWDVLKCDEKAKFVCKHWAEGVTHPPKPTTTPEPKCPEDWGASSRTSLCFKLYAKGKHEKKTWFESRDFCRALGGDLASINNKEEQQTIWRLITASGSYHKLFWLGLTYGSPSEGFTWSDGSPVSYENWAYGEPNNYQNVEYCGELKGDPTMSWNDINCEHLNNWICQIQKGQTPKPEPTPAPQDNPPVTEDGWVIYKDYQYYFSKEKETMDNARAFCKRNFGDLVSIQSESEKKFLWKYVNRNDAQSAYFIGLLISLDKKFAWMDGSKVDYVSWATGEPNFANEDENCVTMYSNSGFWNDINCGYPNAFICQRHNSSINATTVMPTMPSVPSGCKEGWNFYSNKCFKIFGFMEEERKNWQEARKACIGFGGNLVSIQNEKEQAFLTYHMKDSTFSAWTGLNDVNSEHTFLWTDGRGVHYTNWGKGYPGGRRSSLSYEDADCVVIIGGASNEAGKWMDDTCDSKRGYICQTRSDPSLTNPPATIQTDGFVKYGKSSYSLMRQKFQWHEAETYCKLHNSLIASILDPYSNAFAWLQMETSNERVWIALNSNLTDNQYTWTDKWRVRYTNWAADEPKLKSACVYLDLDGYWKTAHCNESFYFLCKRSDEIPATEPPQLPGRCPESDHTAWIPFHGHCYYIESSYTRNWGQASLECLRMGSSLVSIESAAESSFLSYRVEPLKSKTNFWIGLFRNVEGTWLWINNSPVSFVNWNTGDPSGERNDCVALHASSGFWSNIHCSSYKGYICKRPKIIDAKPTHELLTTKADTRKMDPSK
notes: Bought protein, amine-coupled to a CM5 chip (about 5000 RU)

Legend:
[68Ga]MART-1 = molecular target: T1, [68Ga]MART-1 (conjugated with the chelator DOTA complexed with 68Ga; attachment site not stated); test: protein plate binding assay on coated mouse CD206, gamma counting
T1 construct: Synthetic control peptide with DOTA, radiolabeled with 68Ga under the same conditions as RP832c; also called 68Ga-labeled DOTA-MART-1; control tracer

DOTA-MART-1 = molecular target: T2, DOTA-MART-1 (conjugated with the chelator DOTA (no radiometal stated); attachment site not stated); test: SPR (Biacore T200), CD206 immobilized on CM5 chip, peptide as analyte
T2 construct: also called MART-1 peptide with DOTA

Binder | binding result ([68Ga]MART-1) | binding result (DOTA-MART-1)
B1 | no binding (tested: 50 nM) | 
B2 |  | no binding (tested: 0.5 uM-10 uM)
